Data: patent US20060234285A1 (Human Genome Sciences, published 2006)

T1: TNF-gamma-beta, full length, on transfected cells (human, UniProt O95150 1-251)
T1 construct: whole, on cells; also called TL1β
T1 sequence (looked up): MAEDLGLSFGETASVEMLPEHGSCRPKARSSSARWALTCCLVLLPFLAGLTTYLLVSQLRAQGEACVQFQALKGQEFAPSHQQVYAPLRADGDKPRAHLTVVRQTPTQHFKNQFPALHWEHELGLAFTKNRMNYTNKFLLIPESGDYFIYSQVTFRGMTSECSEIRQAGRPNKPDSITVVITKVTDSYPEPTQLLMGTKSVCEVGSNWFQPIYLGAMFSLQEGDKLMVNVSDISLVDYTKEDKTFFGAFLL

T2: TNFR-6 alpha-(His) (human, UniProt O95407 30-300)
T2 construct: also called TNFR-6α; DcR3
T2 sequence: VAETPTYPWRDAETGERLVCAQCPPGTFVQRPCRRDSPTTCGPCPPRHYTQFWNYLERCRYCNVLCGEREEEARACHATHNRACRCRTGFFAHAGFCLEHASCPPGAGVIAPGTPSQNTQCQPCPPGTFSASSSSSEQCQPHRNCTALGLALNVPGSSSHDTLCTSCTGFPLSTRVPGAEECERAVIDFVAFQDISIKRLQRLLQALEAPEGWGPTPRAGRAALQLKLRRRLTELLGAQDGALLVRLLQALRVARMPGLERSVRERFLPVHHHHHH

T3: Murine FasL on transfected murine L929 cells (murine, UniProt P41047 1-279)
T3 sequence (looked up): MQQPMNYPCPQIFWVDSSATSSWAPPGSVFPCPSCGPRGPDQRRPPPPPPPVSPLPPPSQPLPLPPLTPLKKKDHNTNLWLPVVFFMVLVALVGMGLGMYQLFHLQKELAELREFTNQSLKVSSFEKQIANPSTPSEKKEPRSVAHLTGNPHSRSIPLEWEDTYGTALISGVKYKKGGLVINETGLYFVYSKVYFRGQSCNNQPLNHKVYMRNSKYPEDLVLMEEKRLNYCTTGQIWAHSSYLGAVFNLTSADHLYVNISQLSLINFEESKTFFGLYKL

T4: sFas ligand (Alexis Corporation) with a FLAG epitope tag at its N-terminus (human, UniProt P48023 103-281)
T4 sequence (looked up): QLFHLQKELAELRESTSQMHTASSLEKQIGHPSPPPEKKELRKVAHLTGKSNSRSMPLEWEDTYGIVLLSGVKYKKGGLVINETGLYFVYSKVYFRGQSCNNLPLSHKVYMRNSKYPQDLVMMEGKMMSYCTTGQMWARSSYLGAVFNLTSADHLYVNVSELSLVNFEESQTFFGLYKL

T5: FLAG-tagged soluble form of TNF-gamma-beta (aa 72-251) (human, UniProt O95150 72-251)
T5 construct: also called FLAG-TL1β; FLAG-TNF-gamma-beta
T5 sequence (looked up): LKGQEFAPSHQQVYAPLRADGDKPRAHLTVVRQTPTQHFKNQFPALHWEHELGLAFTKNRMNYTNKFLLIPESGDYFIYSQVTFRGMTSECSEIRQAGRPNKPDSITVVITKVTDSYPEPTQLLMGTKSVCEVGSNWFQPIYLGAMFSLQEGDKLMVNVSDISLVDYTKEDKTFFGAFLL

T6: Full-length human TR6 (without Fc) (human, UniProt O95407 30-300)
T6 construct: Full-length cDNA expressed in Sf9 cells with the natural leader; also called TR6 non-Fc; TR6-non-Fc
T6 sequence: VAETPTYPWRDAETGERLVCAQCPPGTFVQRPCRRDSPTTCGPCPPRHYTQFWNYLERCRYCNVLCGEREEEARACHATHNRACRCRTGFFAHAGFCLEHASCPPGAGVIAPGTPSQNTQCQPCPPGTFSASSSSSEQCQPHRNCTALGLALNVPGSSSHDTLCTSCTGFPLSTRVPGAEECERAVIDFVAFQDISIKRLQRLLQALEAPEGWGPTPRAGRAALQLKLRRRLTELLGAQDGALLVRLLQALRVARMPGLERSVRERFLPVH

B1: TNFR1-Fc (Fc fusion, UniProt P19438 30-211, looked up, not shown: a dimerising Fc or GST)
chain: LVPHLGDREKRDSVCPQGKYIHPQNNSICCTKCHKGTYLYNDCPGPGQDTDCRECESGSFTASENHLRHCLSCSKCRKEMGQVEISSCTVDRDTVCGCRKNQYRHYWSENLFQCFNCSLCLNGTVHLSCQEKQNTVCTCHAGFFLRENECVSCSNCKKSLECTKLCLPQIENVKGTEDSGTT
notes: extracellular domain; also called TNFRLFc
B2: Extra-cellular portion of FasL (Oncogene Research Products), amino acids 103-281 (ligand, human, UniProt P48023 103-281, looked up)
chain: T4 sequence (looked up)
notes: range 103-281; Immobilised on a BIAcore chip (2020 RU); also called immobilized FasL
B3: DcR1-Fc (Fc fusion, UniProt O14798 26-236, looked up, not shown: a dimerising Fc or GST)
chain: ATTARQEEVPQQTVAPQQQRHSFKGEECPAGSHRSEHTGACNPCTEGVDYTNASNNEPSCFPCTVCKSDQKHKSSCTMTRDTVCQCKEGTFRNENSPEMCRKCSRCPSGEVQVSNCTSWDDIQCVEEFGANATVETPAAEETMNTSPGTPAPAAEETMNTSPGTPAPAAEETMTTSPGTPAPAAEETMTTSPGTPAPAAEETMITSPGTPA
notes: extracellular domain
B4: AIM-II, full sequence, on stably transfected HEK 293 EBNA cells (ligand, UniProt O43557 1-240, looked up)
chain: MEESVVRPSVFVVDGQTDIPFTRLGRSHRRQSCSVARVGLGLLLLLMGAGLAVQGWFLLQLHWRLGEMVTRLPDGPAGSWEQLIQERRSHEVNPAAHLTGANSSLTGSGGPLLWETQLGLAFLRGLSYHDGALVVTKAGYYYIYSKVQLGGVGCPLGLASTITHGLYKRTPRYPEELELLVSQQSPCGRATSSSRVWWDSSFLGGVVHLEAGEKVVVRVLDERLVRLRDGTRSYFGAFMV
notes: whole, on cells
B5: TNFR-6 alpha-Fc fusion protein (full length TNFR-6 alpha, amino acids 1-300 of SEQ ID NO:2, fused to the Fc domain of human IgG1) (Fc fusion, not shown: a dimerising Fc or GST)
chain: T6 sequence
B6: OX40-Fc (Fc fusion, UniProt P43489 29-214, looked up, not shown: a dimerising Fc or GST)
chain: LHCVGDTYPSNDRCCHECRPGNGMVSRCSRSQNTVCRPCGPGFYNDVVSSKPCKPCTWCNLRSGSERKQLCTATQDTVCRCRAGTQPLDSYKPGVDCAPCPPGHFSPGDNQACKPWTNCTLAGKHTLQPASNSSDAICEDRDPPATQPQETQGPPARPITVQPTEAWPRTSQGPSTRPVEVPGGRA
notes: extracellular domain
B7: OPG-Fc (Fc fusion, UniProt O00300 22-201, looked up, not shown: a dimerising Fc or GST)
chain: ETFPPKYLHYDEETSHQLLCDKCPPGTYLKQHCTAKWKTVCAPCPDHYYTDSWHTSDECLYCSPVCKELQYVKQECNRTHNRVCECKEGRYLEIEFCLKHRSCPPGFGVVQAGTPERNTVCKRCPDGFFSNETSSKAPCRKHTNCSVFGLLLTQKGNATHDNICSGNSESTQKCGIDVTL
notes: extracellular domain
B8: TACI-Fc (extracellular domain of human TAC1, aa 1-159, fused to the Fc domain of human IgG1) (Fc fusion, UniProt O14836 1-159, looked up, not shown: a dimerising Fc or GST)
chain: MSGLGRSRRGGRSRVDQEERFPQGLWTGVAMRSCPEEQYWDPLLGTCMSCKTICNHQSQRTCAAFCRSLSCRKEQGKFYDHLLRDCISCASICGQHPKQCAYFCENKLRSPVNLPPELRRQRSGEVENNSDNSGRYQGLEHRGSEASPALPGLKLSADQ
notes: range 1-159; also called TAC1-Fc
B9: Soluble human FLAG-FasL (synthesized at HGS) (ligand, UniProt P48023 130-281, looked up, not shown: small tags and cut ends)
chain: QIGHPSPPPEKKELRKVAHLTGKSNSRSMPLEWEDTYGIVLLSGVKYKKGGLVINETGLYFVYSKVYFRGQSCNNLPLSHKVYMRNSKYPQDLVMMEGKMMSYCTTGQMWARSSYLGAVFNLTSADHLYVNVSELSLVNFEESQTFFGLYKL
notes: called trimerized in the kinetic BIAcore run; cross-linked with FLAG antibody in the cell assays; also called FasL-Flag; trimerized FLAG-FasL
B10: RANK-Fc (Fc fusion, UniProt Q9Y6Q6 30-212, looked up, not shown: a dimerising Fc or GST)
chain: IAPPCTSEKHYEHLGRCCNKCEPGKYMSSKCTTTSDSVCLPCGPDEYLDSWNEEDKCLLHKVCDTGKALVAVVAGNSTTPRRCACTAGYHWSQDCECCRRNTECAPGLGAQHPLQLNKDTVCKPCLAGYFSDAFSSTDKCRPWTNCTFLGKRVEHHGTEKSDAVCSSSLPARKPPNEPHVYLP
notes: extracellular domain
B11: DcR2-Fc (Fc fusion, UniProt Q9UBN6 56-211, looked up, not shown: a dimerising Fc or GST)
chain: ATIPRQDEVPQQTVAPQQQRRSLKEEECPAGSHRSEYTGACNPCTEGVDYTIASNNLPSCLLCTVCKSGQTNKSSCTTTRDTVCQCEKGSFQDKNSPEMCRTCRTGCPRGMVKVSNCTPRSDIKCKNESAASSTGKTPAAEETVTTILGMLASPYH
notes: extracellular domain
B12: AITR-Fc (Fc fusion, UniProt Q9Y5U5 26-162, looked up, not shown: a dimerising Fc or GST)
chain: QRPTGGPGCGPGRLLLGTGTDARCCRVHTTRCCRDYPGEECCSEWDCMCVQPEFHCGDPCCTTCRHHPCPPGQGVQSQGKFSFGFQCIDCASGTFSGGHEGHCKPWTDCTQFGFLTVFPGNKTHNAVCVPGSPPAEP
notes: extracellular domain

What was measured:
[1] = target: T1, TNF-gamma-beta, full length, on …; assay: flow cytometry on HEK293F cells expressing full length TNF-gamma-beta
Description: One million cells, in 0.1 ml of FACS buffer (PBS, 0.1% BSA, 0.1% NaN₃), were incubated with 0.1-1 microgram of protein or antibody at RT for 15 min. The cells were washed with 3 ml of FACS buffer, reacted with biotinylated primary antibody, and stained with PE-conjugated secondary antibody at RT for 15 min. Cells were then washed again, resuspended in 0.5 microgram/ml of propidium iodide, and live cells were gated and analyzed on a FACScan using the CellQuest software (BD Biosciences).

[2] = target: B5; assay: BIAcore
TNFR-6 alpha-(His) = target: T2, TNFR-6 alpha-(His); assay: flow cytometry on AIM-II-transfected HEK 293 EBNA cells
[3] = target: B9; assay: cell-based or functional assay
[4] = target: T3, Murine FasL on transfected murine L929 …; assay: cell-based or functional assay
[5] = target: T4, sFas ligand (Alexis Corporation) with a …; assay: cell-based or functional assay
[6] = target: T5, FLAG-tagged soluble form of …; assay: coimmunoprecipitation with protein A-Sepharose, anti-Flag western blot
Excerpt: The beads were then precipitated and washed extensively with PBST buffer (PBS, 0.5% Triton X-100) before boiled in SDS-sample buffer. Proteins were resolved on 4-20% Tris-Glycine gels (NOVEX), transferred to nitrocellulose membranes, and blotted with anti-Flag M2 monoclonal antibody (1 microgram/ml, Sigma) and horseradish peroxidase (HRP)-conjugated goat anti-mouse IgG antibody (0.5 microgram/ml).

[7] = target: T6, Full-length human TR6 (without Fc); assay: BIAcore, FasL-Flag soluble
[8] = target: B5; assay: BIAcore, TR6-Fc immobilized, trimerized FLAG-FasL soluble

| Binder | binding result [1] | other results |
| --- | --- | --- |
| B1 | no binding | – |
| B2 | – | binding result [2]: binds |
| B3 | no binding | – |
| B4 | – | binding result (TNFR-6 alpha-(His)): binds |
| B5 | – | potency against FasL-induced Jurkat cytotoxicity relative to Fas-Fc [3]: 100 fold; IC50 of inhibition of killing of A20 target cells by murine FasL-transfected L929 cells [4]: ~1 ng/mL; IC50 (read off the curve): TR6Fc concentration giving half rescue of Jurkat viability from sFasL 20 ng (Alamar blue, OD 570 nm - 630 nM) [5]: ~5 ng/mL |
| B6 | no binding | – |
| B7 | no binding | – |
| B8 | no binding | binding result [6]: no binding |
| B9 | – | Kd [7]: 17 nM; Kd [8]: 4.6 nM |
| B10 | no binding | – |
| B11 | no binding | – |
| B12 | no binding | – |
